{
  "source": "paper PMC9095613",
  "key": {"Tva-HA-Fc": {"molecular_target": "Tva-HA-Fc", "test": "co-IP", "conditions": "parent: est. 1.0; read off a plot"}},
  "data": [
    {"substance": "A-gp85-flag wt (soluble gp85 of ALV-A RSA) (natural protein)", "values": [
      {"measurement": "blocking of viral entry: % GFP-positive DF-1 cells (FACS) after incubation with the gp85 protein and infection with RCASBP (A)-EGFP; Tva on DF-1 cells (Figure 6C) (% GFP-positive cells)", "setting": "Tva-HA-Fc (chicken)", "result": 0.21}
    ]},
    {"substance": "A-gp85-flag wt (soluble gp85 of ALV-A RSA) -139S", "values": [
      {"measurement": "ratio to parent", "setting": "Tva-HA-Fc", "result": 0.73}
    ]},
    {"substance": "A-gp85-flag wt (soluble gp85 of ALV-A RSA) -155PWVNPF", "values": [
      {"measurement": "ratio to parent", "setting": "Tva-HA-Fc", "result": 0.07}
    ]},
    {"substance": "A-gp85-flag wt (soluble gp85 of ALV-A RSA) -201NFD", "values": [
      {"measurement": "ratio to parent", "setting": "Tva-HA-Fc", "result": 0.8}
    ]},
    {"substance": "A-gp85-flag wt (soluble gp85 of ALV-A RSA) -266S", "values": [
      {"measurement": "ratio to parent", "setting": "Tva-HA-Fc", "result": 0.43}
    ]},
    {"substance": "E-gp85-flag wt (soluble gp85 of ALV-E ev-1) (natural protein)", "values": [
      {"measurement": "blocking of viral entry: % GFP-positive DF-1 cells (FACS) after incubation with the gp85 protein and infection with RCASBP (A)-EGFP; Tva on DF-1 cells (Figure 6C) (% GFP-positive cells)", "setting": "Tva-HA-Fc (chicken)", "result": 31}
    ]}
  ]
}
